Test results from paper PMC5408658, “In vitro characterization of six STUB1 variants in spinocerebellar ataxia 16 reveals altered structural properties for the encoded CHIP proteins” (Bioscience Reports, 2017).

How the values were obtained:
[1] = target: T1, His-maltose-binding protein (MBP)-CHIP fusion protein, wild type (human), Q9UNE7; test: SEC; 1 mg MBP-CHIP fusion protein, Superdex 200 Increase 10/300 GL, 20 mM NaH2PO4 pH 7.4, 0.3 ml/min, 4°C; self-association (monomers, dimers, higher oligomers); conditions: remark: other sources report otherwise
T1 chain: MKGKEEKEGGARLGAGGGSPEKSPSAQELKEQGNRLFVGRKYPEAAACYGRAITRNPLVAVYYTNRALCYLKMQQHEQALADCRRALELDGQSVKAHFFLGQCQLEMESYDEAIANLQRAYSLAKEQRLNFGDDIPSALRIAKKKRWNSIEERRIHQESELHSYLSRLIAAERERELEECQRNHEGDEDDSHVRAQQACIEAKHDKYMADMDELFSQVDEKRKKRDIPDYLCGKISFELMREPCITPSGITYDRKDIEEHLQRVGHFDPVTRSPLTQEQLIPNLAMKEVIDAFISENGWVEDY

[2] = target: the molecule itself; test: native gel or EMSA; 10 ug MBP fusion protein on a 12% NativePAGE Bis-Tris gel, Coomassie Blue staining; self-association (oligomeric states)
[3] = target: the molecule itself; test: SEC; 1 mg MBP-CHIP fusion protein, Superdex 200 Increase 10/300 GL, 20 mM NaH2PO4 pH 7.4, 0.3 ml/min, 4°C; self-association (monomers, dimers, higher oligomers)

B1: His-maltose-binding protein (MBP)-CHIP fusion protein, wild type, Q9UNE7-1 1-303 (enzyme)
chain: MKGKEEKEGGARLGAGGGSPEKSPSAQELKEQGNRLFVGRKYPEAAACYGRAITRNPLVAVYYTNRALCYLKMQQHEQALADCRRALELDGQSVKAHFFLGQCQLEMESYDEAIANLQRAYSLAKEQRLNFGDDIPSALRIAKKKRWNSIEERRIHQESELHSYLSRLIAAERERELEECQRNHEGDEDDSHVRAQQACIEAKHDKYMADMDELFSQVDEKRKKRDIPDYLCGKISFELMREPCITPSGITYDRKDIEEHLQRVGHFDPVTRSPLTQEQLIPNLAMKEVIDAFISENGWVEDY
Binder B1 has a stoichiometry N [1] of 2.

B2: His-MBP-CHIP fusion protein, S236T (enzyme, human, UniProt Q9UNE7-1 1-303, looked up)
chain: MKGKEEKEGGARLGAGGGSPEKSPSAQELKEQGNRLFVGRKYPEAAACYGRAITRNPLVAVYYTNRALCYLKMQQHEQALADCRRALELDGQSVKAHFFLGQCQLEMESYDEAIANLQRAYSLAKEQRLNFGDDIPSALRIAKKKRWNSIEERRIHQESELHSYLSRLIAAERERELEECQRNHEGDEDDSHVRAQQACIEAKHDKYMADMDELFSQVDEKRKKRDIPDYLCGKITFELMREPCITPSGITYDRKDIEEHLQRVGHFDPVTRSPLTQEQLIPNLAMKEVIDAFISENGWVEDY
notes: CHIP (STUB1), human, full-length cDNA in pETM-41, pathogenic SCAR16 variant S236T; Variant found in patients; made by site-directed mutagenesis; also called MBP-CHIP S236T; source: E. coli BL21-CodonPlus (DE3)-RP, purified (Ni-NTA)
B2: binds [2].

B3: His-MBP-CHIP fusion protein, N65S (enzyme, human, UniProt Q9UNE7-1 1-303, looked up)
chain: MKGKEEKEGGARLGAGGGSPEKSPSAQELKEQGNRLFVGRKYPEAAACYGRAITRNPLVAVYYTSRALCYLKMQQHEQALADCRRALELDGQSVKAHFFLGQCQLEMESYDEAIANLQRAYSLAKEQRLNFGDDIPSALRIAKKKRWNSIEERRIHQESELHSYLSRLIAAERERELEECQRNHEGDEDDSHVRAQQACIEAKHDKYMADMDELFSQVDEKRKKRDIPDYLCGKISFELMREPCITPSGITYDRKDIEEHLQRVGHFDPVTRSPLTQEQLIPNLAMKEVIDAFISENGWVEDY
notes: CHIP (STUB1), human, full-length cDNA in pETM-41, pathogenic SCAR16 variant N65S; Variant found in patients; made by site-directed mutagenesis; also called CHIP-N65S; MBP-CHIP N65S; source: E. coli BL21-CodonPlus (DE3)-RP, purified (Ni-NTA)
In the case of B3, the “stoichiometry N” value [3] is reported as 2.

B4: His-MBP-CHIP fusion protein, M211I (enzyme, human, UniProt Q9UNE7-1 1-303, looked up)
chain: MKGKEEKEGGARLGAGGGSPEKSPSAQELKEQGNRLFVGRKYPEAAACYGRAITRNPLVAVYYTNRALCYLKMQQHEQALADCRRALELDGQSVKAHFFLGQCQLEMESYDEAIANLQRAYSLAKEQRLNFGDDIPSALRIAKKKRWNSIEERRIHQESELHSYLSRLIAAERERELEECQRNHEGDEDDSHVRAQQACIEAKHDKYMADIDELFSQVDEKRKKRDIPDYLCGKISFELMREPCITPSGITYDRKDIEEHLQRVGHFDPVTRSPLTQEQLIPNLAMKEVIDAFISENGWVEDY
notes: CHIP (STUB1), human, full-length cDNA in pETM-41, pathogenic SCAR16 variant M211I; Variant found in patients; made by site-directed mutagenesis; also called MBP-CHIP M211I; source: E. coli BL21-CodonPlus (DE3)-RP, purified (Ni-NTA)
B4: binds [2].

B5: His-MBP-CHIP fusion protein, K145Q (enzyme, human, UniProt Q9UNE7-1 1-303, looked up)
chain: MKGKEEKEGGARLGAGGGSPEKSPSAQELKEQGNRLFVGRKYPEAAACYGRAITRNPLVAVYYTNRALCYLKMQQHEQALADCRRALELDGQSVKAHFFLGQCQLEMESYDEAIANLQRAYSLAKEQRLNFGDDIPSALRIAKKQRWNSIEERRIHQESELHSYLSRLIAAERERELEECQRNHEGDEDDSHVRAQQACIEAKHDKYMADMDELFSQVDEKRKKRDIPDYLCGKISFELMREPCITPSGITYDRKDIEEHLQRVGHFDPVTRSPLTQEQLIPNLAMKEVIDAFISENGWVEDY
notes: CHIP (STUB1), human, full-length cDNA in pETM-41, pathogenic SCAR16 variant K145Q; Variant found in patients; made by site-directed mutagenesis; also called MBP-CHIP K145Q; source: E. coli BL21-CodonPlus (DE3)-RP, purified (Ni-NTA)
B5: binds [2].

B6: His-MBP-CHIP fusion protein, T246M (enzyme, human, UniProt Q9UNE7-1 1-303, looked up)
chain: MKGKEEKEGGARLGAGGGSPEKSPSAQELKEQGNRLFVGRKYPEAAACYGRAITRNPLVAVYYTNRALCYLKMQQHEQALADCRRALELDGQSVKAHFFLGQCQLEMESYDEAIANLQRAYSLAKEQRLNFGDDIPSALRIAKKKRWNSIEERRIHQESELHSYLSRLIAAERERELEECQRNHEGDEDDSHVRAQQACIEAKHDKYMADMDELFSQVDEKRKKRDIPDYLCGKISFELMREPCIMPSGITYDRKDIEEHLQRVGHFDPVTRSPLTQEQLIPNLAMKEVIDAFISENGWVEDY
notes: CHIP (STUB1), human, full-length cDNA in pETM-41, pathogenic SCAR16 variant T246M; Variant found in patients; made by site-directed mutagenesis; also called CHIP-T246M; MBP-CHIP T246M; source: E. coli BL21-CodonPlus (DE3)-RP, purified (Ni-NTA)
B6: binds [2].
